According to paper PMC3508296:

Biological target: fibronectin (UniProt P02751)
Assay: SPR

fibronectin, sequence (P02751 32-2477): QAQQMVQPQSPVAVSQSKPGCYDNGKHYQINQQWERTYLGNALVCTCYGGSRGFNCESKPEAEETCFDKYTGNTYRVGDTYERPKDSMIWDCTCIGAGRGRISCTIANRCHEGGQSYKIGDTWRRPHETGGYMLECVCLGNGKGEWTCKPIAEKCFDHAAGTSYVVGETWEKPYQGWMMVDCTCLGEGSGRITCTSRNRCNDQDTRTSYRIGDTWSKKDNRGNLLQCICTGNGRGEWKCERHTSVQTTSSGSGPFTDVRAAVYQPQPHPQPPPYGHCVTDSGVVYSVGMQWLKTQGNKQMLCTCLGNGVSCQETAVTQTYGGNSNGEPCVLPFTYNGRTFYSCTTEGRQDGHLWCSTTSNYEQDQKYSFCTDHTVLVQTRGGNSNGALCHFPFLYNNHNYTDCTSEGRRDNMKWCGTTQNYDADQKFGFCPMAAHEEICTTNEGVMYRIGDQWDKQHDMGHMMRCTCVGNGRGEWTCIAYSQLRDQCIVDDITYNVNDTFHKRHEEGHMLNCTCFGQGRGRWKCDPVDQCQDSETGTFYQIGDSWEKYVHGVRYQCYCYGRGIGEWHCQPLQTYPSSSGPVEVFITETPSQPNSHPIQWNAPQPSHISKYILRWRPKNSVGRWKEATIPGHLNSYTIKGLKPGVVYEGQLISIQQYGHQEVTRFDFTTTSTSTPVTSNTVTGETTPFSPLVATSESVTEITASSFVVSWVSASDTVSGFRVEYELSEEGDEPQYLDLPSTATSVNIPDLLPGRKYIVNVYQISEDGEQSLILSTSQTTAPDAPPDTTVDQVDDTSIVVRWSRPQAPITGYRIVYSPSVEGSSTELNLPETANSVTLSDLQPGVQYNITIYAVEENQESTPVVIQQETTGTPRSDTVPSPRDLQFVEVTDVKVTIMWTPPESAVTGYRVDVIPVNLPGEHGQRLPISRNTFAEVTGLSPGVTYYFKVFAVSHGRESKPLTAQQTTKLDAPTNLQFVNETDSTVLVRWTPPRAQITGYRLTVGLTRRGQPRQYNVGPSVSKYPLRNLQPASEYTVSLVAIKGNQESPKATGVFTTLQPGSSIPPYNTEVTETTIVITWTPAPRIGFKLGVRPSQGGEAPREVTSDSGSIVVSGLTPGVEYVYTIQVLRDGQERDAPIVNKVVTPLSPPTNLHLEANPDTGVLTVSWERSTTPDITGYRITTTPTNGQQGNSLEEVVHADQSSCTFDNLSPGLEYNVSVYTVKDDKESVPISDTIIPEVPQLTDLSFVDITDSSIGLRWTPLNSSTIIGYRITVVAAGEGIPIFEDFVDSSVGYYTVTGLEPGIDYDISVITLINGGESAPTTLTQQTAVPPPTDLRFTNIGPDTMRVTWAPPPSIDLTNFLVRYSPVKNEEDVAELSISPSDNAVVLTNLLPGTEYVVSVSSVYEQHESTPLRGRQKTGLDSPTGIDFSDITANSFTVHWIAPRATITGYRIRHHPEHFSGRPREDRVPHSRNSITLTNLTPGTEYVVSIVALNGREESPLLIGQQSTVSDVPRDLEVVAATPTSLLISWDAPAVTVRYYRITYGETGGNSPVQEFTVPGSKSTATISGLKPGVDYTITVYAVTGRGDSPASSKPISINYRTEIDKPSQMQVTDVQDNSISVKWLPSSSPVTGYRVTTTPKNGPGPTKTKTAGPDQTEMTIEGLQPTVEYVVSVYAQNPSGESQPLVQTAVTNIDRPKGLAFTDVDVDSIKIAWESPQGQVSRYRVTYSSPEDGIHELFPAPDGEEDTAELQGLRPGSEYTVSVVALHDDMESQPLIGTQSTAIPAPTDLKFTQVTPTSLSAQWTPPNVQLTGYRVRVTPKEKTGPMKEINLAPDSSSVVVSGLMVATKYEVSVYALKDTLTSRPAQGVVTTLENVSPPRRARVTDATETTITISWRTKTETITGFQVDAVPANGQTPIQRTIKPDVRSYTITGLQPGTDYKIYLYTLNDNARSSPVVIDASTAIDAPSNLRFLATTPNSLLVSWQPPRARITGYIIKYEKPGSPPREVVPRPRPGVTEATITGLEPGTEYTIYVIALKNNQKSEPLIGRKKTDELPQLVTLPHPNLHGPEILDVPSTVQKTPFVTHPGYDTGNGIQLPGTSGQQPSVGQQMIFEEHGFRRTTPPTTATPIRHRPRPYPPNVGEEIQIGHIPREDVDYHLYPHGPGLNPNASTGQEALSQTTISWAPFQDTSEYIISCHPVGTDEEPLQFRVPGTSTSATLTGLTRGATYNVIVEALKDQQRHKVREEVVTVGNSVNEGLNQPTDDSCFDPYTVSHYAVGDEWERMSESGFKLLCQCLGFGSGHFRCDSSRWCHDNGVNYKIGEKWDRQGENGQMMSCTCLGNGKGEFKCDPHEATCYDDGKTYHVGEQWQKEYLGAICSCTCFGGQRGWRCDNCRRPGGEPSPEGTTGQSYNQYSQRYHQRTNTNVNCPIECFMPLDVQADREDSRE

| Substance | Kd | koff | kon | t1/2 (calculated from Koff) |
| --- | --- | --- | --- | --- |
| BB0347 (natural protein; other documents disagree on this pair) | 0.64 µM | 0.16 s⁻¹ | 265000 M⁻¹ s⁻¹ |  |
| BBK32 (from UniProt O50835 1-354) (natural protein; other documents disagree on this pair) | 0.019 µM | 0.1 s⁻¹ | 5.21e+06 M⁻¹ s⁻¹ | 6.93 s |
